Molecular target: NCAM Ig1-2-3 fragment (recombinant rat NCAM residues 1-289, deglycosylated) (rat)
Test: dynamic light scattering, 4 mg/ml in PBS pH 7.4, 18 C; self-association

molecular weight in solution (DLS): 78 kDa
Substance: NCAM Ig1-2-3 fragment (recombinant rat NCAM residues 1-289, deglycosylated) (from UniProt P13595 20-308)

Source: patent US20080249004A1
